Residue numbers refer to the chain shown, from its start. In names and notes the source's numbering stands.
T1: Axl protein (human, UniProt P30530 26-451)
T1 construct: extracellular domain; also called human Axl; hAxl
T1 sequence (looked up): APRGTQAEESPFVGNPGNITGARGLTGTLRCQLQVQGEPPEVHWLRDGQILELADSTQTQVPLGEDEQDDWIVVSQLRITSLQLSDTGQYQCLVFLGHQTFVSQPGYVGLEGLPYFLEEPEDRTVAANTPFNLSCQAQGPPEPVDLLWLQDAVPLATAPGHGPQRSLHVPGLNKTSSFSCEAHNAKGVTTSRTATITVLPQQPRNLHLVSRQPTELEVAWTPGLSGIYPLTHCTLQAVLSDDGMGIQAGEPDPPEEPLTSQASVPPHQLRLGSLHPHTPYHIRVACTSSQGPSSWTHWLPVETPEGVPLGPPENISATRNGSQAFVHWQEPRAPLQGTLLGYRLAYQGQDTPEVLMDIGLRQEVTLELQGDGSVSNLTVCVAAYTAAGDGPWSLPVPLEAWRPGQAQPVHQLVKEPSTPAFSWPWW

B1: LC-H091C (antibody, V domains shown)
VH: EVQLVQSGAEVKKPGATVKISCKVSGYSFTGHTMNWIRQPPGKGLEWIGLIKPSNGGTSYNQKFKGRVTISADKSISTAYLQWSSLKASDTAMYYCAHGHYESYFAMDYWGQGTLVTVSS
VL: DIQMTQSPSSLSASVGDRVTITCKASQDVSSAVAWYQQKPGQAPRLLIYWASTRHTGVPSRFSGSGSGTEFTLTISSLQPDDFATYYCQECFSTPLTFGQGTKVEIK
B2: LC-P095W (antibody, V domains shown)
VH: B1 VH
VL: B1 VL with C91H, P95W
B3: LC-L096G (antibody, V domains shown)
VH: B1 VH
VL: B1 VL with C91H, L96G
B4: LC-H091Q (antibody, V domains shown)
VH: B1 VH
VL: B1 VL with C91Q
B5: LC-P095K (antibody, V domains shown)
VH: B1 VH
VL: B1 VL with C91H, P95K
B6: LC-P095E (antibody, V domains shown)
VH: B1 VH
VL: B1 VL with C91H, P95E
B7: LC-H091L (antibody, V domains shown)
VH: B1 VH
VL: B1 VL with C91L
B8: LC-P095T (antibody, V domains shown)
VH: B1 VH
VL: B1 VL with C91H, P95T
B9: LC-L096R (antibody, V domains shown)
VH: B1 VH
VL: B1 VL with C91H, L96R
B10: LC-P095H (antibody, V domains shown)
VH: B1 VH
VL: B1 VL with C91H, P95H
B11: LC-P095V (antibody, V domains shown)
VH: B1 VH
VL: B1 VL with C91H, P95V
B12: LC-H091I (antibody, V domains shown)
VH: B1 VH
VL: B1 VL with C91I
B13: LC-P095D (antibody, V domains shown)
VH: B1 VH
VL: B1 VL with C91H, P95D
B14: LC-H091F (antibody, V domains shown)
VH: B1 VH
VL: B1 VL with C91F
B15: LC-P095S (antibody, V domains shown)
VH: B1 VH
VL: B1 VL with C91H, P95S
B16: LC-T097I (antibody, V domains shown)
VH: B1 VH
VL: B1 VL with C91H, T97I

Biological target: T1, Axl protein
Assay: ELISA, 1:3 dilution, pH 6.0 over pH 7.4

Row | Affinity ELISA CPE mutant ratio (1:3, pH 6.0/7.4) [ratio] | Binder
1 | 4 | B1
2 | 2.15 | B2
3 | 2.17 | B3
4 | 1.77 | B4
5 | 3.84 | B5
6 | 7.12 | B6
7 | 2.8 | B7
8 | 2.5 | B8
9 | 2.88 | B9
10 | 2.5 | B10
11 | 1.87 | B11
12 | 1.55 | B12
13 | 3.95 | B13
14 | 1.6 | B14
15 | 2.84 | B15
16 | 3.09 | B16

Biological target: T1, Axl protein
Assay: ELISA, 1:9 dilution, pH 6.0 over pH 7.4

Row | Affinity ELISA CPE mutant ratio (1:9, pH 6.0/7.4) [ratio] | Binder
17 | 3.02 | B1
18 | 2.26 | B2
19 | 2.44 | B3
20 | 2.01 | B4
21 | 3.47 | B5
22 | 7.51 | B6
23 | 2.08 | B7
24 | 2.09 | B8
25 | 2.18 | B9
26 | 2.75 | B10
27 | 2.13 | B11
28 | 2.15 | B12
29 | 2.89 | B13
30 | 2.12 | B14
31 | 3.51 | B15
32 | 4.05 | B16

From patent US20190177417A1 (BIOATLA, published 2019)
